{
  "source": "the nanobody polyreactivity screen of Harvey et al. (2022)",
  "data": [
    {"test": "yeast display, Sf9 membrane polyspecificity reagent, FACS + sequencing; frameworks hold sequencing errors", "how_it_was_run": "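A synthetic nanobody library was expressed on Saccharomyces cerevisiae BJ5465 by galactose induction for 36–48 hours. The library was stained for 1 hour at 4 °C with 10% biotinylated, detergent-solubilized Sf9 membrane reagent and enriched with streptavidin microbeads before FACS. Low and high (top ~1%) gates were set on anti-HA fluorescence for expression and streptavidin fluorescence for reagent binding, and each polyreactivity label reflects the gate of origin.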", "values": [
      {"sequence": "QVQLVESGGGLVQAGGSLRLSCAASGRTSLVYAMGWYRQAPGKERELVAAITSSGGTTYYADSVKGRFTISRDNAKNTVYLQMNSLKPEDTAVYYCAADVDVSYWRMEYWGQGTQVTVSS", "polyreactivity (PSR sort gate)": "high polyreactivity"},
      {"sequence": "QVQLVESGGGLVQAGGSLRLSCAASGRTSLVYAMGWYRQAPGKERQLVAAISRGGTTNYADSVKGRFTISRDNAKNTVYLQMNSLKPEDTAVYYCAARTIYHVRPMYYWGQGTQVTVSS", "polyreactivity (PSR sort gate)": "high polyreactivity"},
      {"sequence": "QVQLVESGGGLVQAGGSLRLSCAASGRTSPGYAMGWYRQAPGKEREFVAGISRGGGSTYYADSVKGRFTISRDNAKNTVYLQMNSLKPEDTEVYYCNVRGPGFYWNWGQSHYYGYDYWGQGTQVTVSS", "polyreactivity (PSR sort gate)": "high polyreactivity"},
      {"sequence": "QVQLVESGGGLVQAGGSLRLSCAASGRTSQINAMGWYIQAPGKERELVAAITRGGGITYYADSVKGRFTISRDNAKNTVYLQMNSLKPEDTAVYYCATRGSSFVQYRTRYGYWGQGTQVTVSS", "polyreactivity (PSR sort gate)": "high polyreactivity"},
      {"sequence": "QVQLVESGGGLVQAGGSLRLSCAASGRTSRYYAMGWYRQAPGKERELVAAISSSGGNTYYADSVKGRFTISRDNAKNTVYLQMNSLKPEDTAVYYCNAYYPIRSSPYGYYYWGQGTQVTVSS", "polyreactivity (PSR sort gate)": "high polyreactivity"},
      {"sequence": "QVQLVESGGGLVQAGGSLRLSCAASGRTSSINAMGWYRQAPGKERELVAVITGGGRTSYADSVKGRFTISRDNAKNTVDLQMNSLIPEDTAVYYCNATRSYYGYYYWGQGTQVTVSS", "polyreactivity (PSR sort gate)": "high polyreactivity"},
      {"sequence": "QVQLVESGGGLVQAGGSLRLSCAASGRTSSTYDMGWYRLAPGKERELVADITWYGGSTYYADSVKGRFTISRDNAKNTVYLQMNSLIPEDTAVYYCAAERKDGGYGYGFYWGVVGLDYWGQGTQVTVSS", "polyreactivity (PSR sort gate)": "low polyreactivity"},
      {"sequence": "QVQLVESGGGLVQAGGSLRLSCAASGRTSSVYAMGWYRQAPGKESELVAAINRSDGGTYYADSVKGRFTISRDNAKNTVYLQMNSLKPEDTAVYYCARRYYYQYRYDYWGQGTQVTVSS", "polyreactivity (PSR sort gate)": "high polyreactivity"},
      {"sequence": "QVQLVESGGGLVQAGGSLRLSCAASGRTSSYTMGWYRQAPGKERELVAAITRRGVSTYYADSLKGRFTISRDNAKNTVYFQMNSLKAEDTAVYYCAVGPRASFGYGYWGQGTQVTVSS", "polyreactivity (PSR sort gate)": "high polyreactivity"},
      {"sequence": "QVQLVESGGGLVQAGGSLRLSCAASGRTSVPYAMGWYRQAPGKERELVAAITSGGSTYYADSVKGRFTISRDNAKNTVYLQMNSQKPEDTAVYYCAASQPHSAPYTASYGSWGQGTQVTVSS", "polyreactivity (PSR sort gate)": "low polyreactivity"},
      {"sequence": "QVQLVESGGGLVQAGGSLRLSCAASGRTSVRYAMGWYRQAPGKERELVAAISWSGGSTYYADSVKGRFTISRDNAKNTVYLQMNSLKPEDTAVYYCAAERGPTNHTSYPWYEYDYWGQGTQVTVSS", "polyreactivity (PSR sort gate)": "low polyreactivity"},
      {"sequence": "QVQLVESGGGLVQAGGSLRLSCAASGRTSVVNAMGWYRQAPGKERELVAAITSGGSTHYADSVKGRFTISRDNAKNTVYLPMNSLKPEDTAVYYCNARDRRRTNLLDYWGQGTQVTVSS", "polyreactivity (PSR sort gate)": "low polyreactivity"},
      {"sequence": "QVQLVESGGGLVQAGGSLRLSCAASGRTSWVYAMGWYRQAPGTERELVASIRKRTVVYADSVKGRFTISRDNAKNTVYLQMNSLKPEDTAVYYCNADTTFYGYRTYRPENYWGQGTQVTVSS", "polyreactivity (PSR sort gate)": "high polyreactivity"},
      {"sequence": "QVQLVESGGGLVQAGGSLRLSCAASGRTSWYYAMGWYRQAPGKERELVAAITASGGSTYADSVKWRFTISRDNAKNTVYLQMNSLKPEDTAVYYCAAERPYSRVGYYYWGQGTQVTVSS", "polyreactivity (PSR sort gate)": "high polyreactivity"},
      {"sequence": "QVQLVESGGGLVQAGGSLRLSCAASGRTSYRYAMGWYRQAPGKERELVAAISWSGGSTYYADSVKGRFTISRDNAKNTVSLQMNSLKPDDTAVYYCNARQHQVRWWLREFDYWGQGTQVTVSS", "polyreactivity (PSR sort gate)": "low polyreactivity"},
      {"sequence": "QVQLVESGGGLVQAGGSLRLSCAASGRTSYTNAMGWYRQAPGKERELVAAINYSGGSTYYADSVKGRFTISRDNAKNTVYLQMNSLKPEDTAVYYCAAERYYWYTEMGYWGQGTQVTVSS", "polyreactivity (PSR sort gate)": "high polyreactivity"},
      {"sequence": "QVQLVESGGGLVQAGGSLRLSCAASGRTSYTYTMGWYRQAPGKERELVAAISWNAGSTYYADSVKGRFTISRDNAKNTVSLQMNSLKPEDTAVYYCNRRIFGGQRMYYWGQGTQVTVSS", "polyreactivity (PSR sort gate)": "high polyreactivity"}
    ]}
  ]
}
